# Data taken from the domain aggregation screens of Martell et al. (2025).
# Assay: soluble fraction after stress (log2 fold change); higher = more stays soluble; pooled small domains, quantitative proteomics
# Conditions: stress: 75 degC
# 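Also: 20 min heating vs room temperature control held 20 min.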
row,Sequence,soluble fraction (log2)
1,HMTKLTTDERSVYLHIQNKPGVSASSIREALGYKKSKLTSILAQLLEVHKIIDTEGTGKSLKYIL,0.0994
2,HMTKMTPNRQLVLSVLQSSGKPLSAYELLDRLREQGTQWQPPTAYRALDYLVEQGLAHYLQSIQKYV,-1.73
3,HMTKNEFLASFQNELQKRHIPDWEDVVSEYEQHFALKQADGFSEEEIAAKLGAPAELAAQFEA,0.155
4,HMTKQIILVHVAGKVKKPDVYPLLQGSRVADAIKAAGGAKKGVELNDINLARVLIDGEQVFVGYVPE,-2.2
5,HMTKQRSAIMNLLAERNTPLTAEEIGEAIAPSYPKLALSTVYRNLELFTNAGLLEKSFFQDGITRYSLTK,-0.976
6,HMTKRTEPSILQNFDTEIAELIAKNRGISIMDALRIFLASKTHEMLENDEMKLWYFSPLAVFDMWENE,0.318
7,HMTKSIDFDFREDGVYIKADKDVTIVDIVTKIDLRRIQSVDLTKIKQMLEIGSLDNWIKIAEPQMEK,-2
8,HMTKSTLQRQKIIADLIESGNISSQNQLKGLLKKNSLLITQATLSRDLSELGAIKKRQKDGLLVYVLPK,-0.365
9,HMTKTKADKIDYAIGDSGTEPPTEDKWTDLAHLPLIKAGQFQWTRRTEYYSDGSTAVSYNIAKSE,0.096
10,HMTKYKEIVDQLRTNIYEGVFPALSKLPEQTALAKRFQTSRMTIQKALNQLKQEGLISTKRGHGTYVNSAT,-0.74
11,HMTKYVEGQKYVFEFRDGTITIGTYLRTGEGNIYIKDLSGEDIYIPKIMIAQIHLATDDNVKGDEFWF,-1.26
12,HMTLDSLEKLSVNDLEKMLVNMPVGYKTIFLLSVIDEYSHKEIGELLGITPETSRSQLFRAIKWIKTNIF,-0.631
13,HMTLGARTLAAIQSLPKVQQAVFTMKHFEGLKYREISQITGTSEGALKASYHIALEKIKAFLREK,-2.18
14,HMTLGEHILQYRTARGWSQEDLANALEVSRQSVSKWETDASTPELDKIVRLSEIFQVSIDELVTGKA,-0.316
15,HMTLGENLQNLRKEAGLSQEQVAQQLFVSRQTVSKWENNLAEPGVENLKALARLYGVTLDRLVGM,-0.223
16,HMTLKVQLSEISKMVSLSYIAKKYFNKSQSWLSQRINGNTIHNKPAKFTSEELATLQFALKDIGNILNSTV,-2.6
17,HMTLLVPASKEAILGGLAKIDALKVILKPEKDYSKTHAMTIGTKDEVIAKLDSFLSGMDSEKNQVLIQEYM,0.456
18,HMTLSDIGHAVRTRRTELGLSQVQLARLSGLSRQTLVGLENGTLNDLGINRVAQLLAVLGLDAP,-2.02
19,HMTLSHAINRLRLNANMSQEQFAGLFHVSQQSVQKWESGDSVPELSKLIAIAKHFGISLDALILGN,-2.52
20,HMTLTEQQITDNYKELRKIINDTFSGLRLDKLNHMYDDLEDRMVVAPASSVEHYHNSKVGGYVEHILHVI,-0.124
21,HMTLTIEDGYVNAKLKTTVEGLAEDSTIKVDSIEYTNAGKNDILTVFVEDKPYRVEKYKINIAPEDS,0.139
22,HMTLVSALDQKTKDSAYYRGTYLAGKISAGKMTKQEAVADIMKNYDGNTAAMKVAAEKAGVSDLLSQTVL,0.0489
23,HMTMKQVFIETDANVNQKIMLNEKEAHHLFDVLRTSDKETIRVVTNTSQVFLARVQQKPYIYLFDKMTVE,-2.49
24,HMTMNYFIIENNQQVGPLTLEQLVARNITSDTLVWKEGMEDWQPAWKVDELHTVLDQIRANAEQ,-0.00196
25,HMTMVVIMNADATQADIEGVISAIEEKGLEAKVMEGAHQKIVGVIGDKTKLAATPLDAMHGVETTVAIS,-0.244
26,HMTNATVGQIKKLARASILYGNSNLSGNRYTYKANTTVTILQNISSNVDKIRVNVTGRVAYIDNSNYSSST,-3.59
27,HMTNEQLSKAKSWVQIAVYAAEKLYGAGNGDQKLVYAEEILRKHGIRLDTATLKAMIDAQIKEMEN,-1.01
28,HMTNEWRKILSNLNGKYQIVMELFYVDGFSTKEIARMLHITEVNVRSRMVRGRKQLEQILTVR,-0.0301

row,Sequence,soluble fraction (log2)
1,HMTNPPITTEARNLVVEQLKELNALHPEKARELADSYKKEFNVPKVIGHITEARHGEFLALAISKIDES,-0.241
2,HMTNPPTPADTLFNTVRGVLQSILKSPMKDTEVASALNVSKAQARSWLQRLSDEGLIEKRKNPTAYVL,-0.592
3,HMTNTYEVIKNDIIFGVLPPLKKLKLLELKKKYITSVSTLREILSRLSGDGFVVSKEQKGFYVSAV,-0.0741
4,HMTNVNSLIGKKAIVIQDIDNLKSTGQVKIGGEIWSAQSESNDIISKDTEVEIVKIDGVKLIVRLVPV,-0.153
5,HMTNYNTEKIIPEEQAGKRLDVVLANIFPEFSRSRLKNWIIDGFILVDGKVLRPRDFVTGGELVSIDVIV,-0.123
6,HMTPADEAGNDLDIGQTVKILRRVSEGQYEVSYRGTTWQARALNAQAAVEPSFAVIGGKEGNILLVHL,-0.202
7,HMTPDVAEFRERLRQILPGEQIEVRTANDGIVLSGTVSSIARLDAALQLAERYAPSRVSNLMSVG,0.00274
8,HMTPEPVREALTFQEGRVFALAAKNMTNAEIAQSLSLKLKTVENYMSIIYQKLALKNRYELLVYARKSGV,-0.576
9,HMTPESSLHSGLGKILHDALTAKIQLTNFEAKFLSDMQSKYDLNGSFSWLSSKQQTTLEKILAKYGR,-1.98
10,HMTPFLVRVDISDLNIRTGAGTNYSRTGQYTGKGIFTILEVKSGQGSDAGWGRLKSGAGWISLDYTTR,-2.84
11,HMTPIELIEKTIELIENERKVQKLQQKELALKADIPFPTYKDFIYKKRASLENILKLFIALRLF,-0.384
12,HMTPKVAVPSFVGWKFEDVERQLGTMGLIRGKVDNHPSEEYSEGRVIWQSVLGEVEKGKVIDFWVSTGPE,0.0612
13,HMTPNATWQDDAQSLLRDLIQHQPVLIQISAAKRLRDQAEQISRITGGDTVTRDHVEAAGHALGMGVT,-0.0233
14,HMTPPLSKIRNMTPDQQRSSVIEARKKGYNLLQLEGLAKAQGATPADLLVLRNAWAQSEFDQKR,0.067
15,HMTPQVALNDTETAIYEKMKQEKQMLLGELRAQFDISNKLWDTSLKTLTKNQLLAVSKEDDLLFVKL,-0.195
16,HMTPQVTVPDVTGQSFASAKQVLESLGLTVKQQGSTGENDKVIGQNPTSGNADKGATITLTTQDS,0.536
17,HMTPSTVQVHVAGAVKNPGVYVLLENARNIDAITAAGGATSEADLERINLSEFIRDGQRVYVPYKGDPI,0.459
18,HMTPTITNALEEAEKAVSEVQEGKKEIELTPQGAYIRHLQHAIADRYGISSTSTGRDPKRKVIIY,-0.578
19,HMTPTNILIVEDEKEIRRFVRTALESEGLRVFESETLQRGLIEAGTRKPDLIILDLGLPDGDGLSYIRDLR,-0.0383
20,HMTPTRQATVSVAALNVREQPSLQGRRLGKLTQGTTLTVVGPPGEWLKIEYKGETGFVYASYTSLG,-2.01
21,HMTPTVEAAKEEVLRVLASAAPRGLTRTELEAEVSFRRTKLRDTLVELERIGRIDSVGRRGNATTYRLIG,-1.44
22,HMTPVEVNARGVHVDFSKGGILLEDVVRHLILEALRASEWKRGPAAQLLGISKETLRYRMEKYRLYPP,-2.43
23,HMTPYEVLVYESLKQKILSGGYAAGEKIPEQSVSEELGVSRSPLRSAIRRLASEGLIEYYPYRGAFVKA,-1.06
24,HMTQEAMRSLRKSLQNLSSRQQVIFMLRHYEGLALKEIAEHLGLETGTVKAHLHRAVTQLRKDLVE,-1.85
25,HMTQHDIVPLMLKMVDVLTQFVELDIPFLQQERQTRLAALNAMMGRADVSLAEKYRRIMEAYQVETEYG,-0.0856
26,HMTQLEVDLFERLITISGVGPRLALAVLSGLEPPDLLRAIQDSDIVRLQGIPGVGKKTAERISLELKDKLS,-1.35
27,HMTQQYVEWKVYNVTTIKNKYGFRVKLIFQDGSDATQQKGGFTSKKAAEQARTEVIGQLYSNTYVVY,-4.59
